T1: human amylin 3(a) receptor (human calcitonin receptor plus RAMP-3) (human, UniProt P30988 25-474; O60896 24-148, limits assumed)
T1 sequence (looked up) 1: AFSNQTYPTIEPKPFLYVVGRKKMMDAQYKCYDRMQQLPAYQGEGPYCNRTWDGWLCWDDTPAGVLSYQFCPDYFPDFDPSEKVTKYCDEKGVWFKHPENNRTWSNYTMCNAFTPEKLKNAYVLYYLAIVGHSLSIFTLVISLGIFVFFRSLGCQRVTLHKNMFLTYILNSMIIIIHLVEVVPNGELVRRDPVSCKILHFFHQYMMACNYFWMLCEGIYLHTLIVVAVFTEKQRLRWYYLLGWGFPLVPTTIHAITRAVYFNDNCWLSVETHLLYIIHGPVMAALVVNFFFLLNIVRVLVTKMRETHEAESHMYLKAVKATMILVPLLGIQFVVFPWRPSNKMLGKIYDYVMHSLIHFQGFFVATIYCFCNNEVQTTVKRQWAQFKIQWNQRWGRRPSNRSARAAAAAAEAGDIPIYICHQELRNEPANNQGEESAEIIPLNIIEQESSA
T1 sequence (looked up) 2: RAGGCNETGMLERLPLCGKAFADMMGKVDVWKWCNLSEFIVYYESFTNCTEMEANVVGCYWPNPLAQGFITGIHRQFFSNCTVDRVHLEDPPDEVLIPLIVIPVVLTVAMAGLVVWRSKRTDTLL

T2: human calcitonin receptor (human, UniProt P30988 25-474)
T2 sequence (looked up): T1 sequence (looked up) 1

B1: N^α1-[2-[2-[2-[[2-[2-[2-[[(4S)-4-carboxy-4-(19-carboxynonadecanoylamino)butanoyl]amino]ethoxy]ethoxy]acetyl]amino]ethoxy]ethoxy]acetyl]-[Glu14,Arg17,Pro21,Pro27 … (peptide)
peptide: {C20 diacid-γGlu-AEEA-AEEA}-KCNTATCATQRLAEFLRHSSPNFGAIPSSTNVGSNTP-NH2
modifications: disulfide 2-7
SMILES: CC[C@H](C)[C@H](NC(=O)[C@H](C)NC(=O)CNC(=O)[C@H](Cc1ccccc1)NC(=O)[C@H](CC(N)=O)NC(=O)[C@@H]1CCCN1C(=O)[C@H](CO)NC(=O)[C@H](CO)NC(=O)[C@H](Cc1c[nH]cn1)NC(=O)[C@H](CCCNC(=N)N)NC(=O)[C@H](CC(C)C)NC(=O)[C@H](Cc1ccccc1)NC(=O)[C@H](CCC(=O)O)NC(=O)[C@H](C)NC(=O)[C@H](CC(C)C)NC(=O)[C@H](CCCNC(=N)N)NC(=O)[C@H](CCC(N)=O)NC(=O)[C@@H](NC(=O)[C@H](C)NC(=O)[C@@H]1CSSC[C@H](NC(=O)[C@H](CCCCN)NC(=O)COCCOCCNC(=O)COCCOCCNC(=O)CC[C@H](NC(=O)CCCCCCCCCCCCCCCCCCC(=O)O)C(=O)O)C(=O)N[C@@H](CC(N)=O)C(=O)N[C@@H]([C@@H](C)O)C(=O)N[C@@H](C)C(=O)N[C@@H]([C@@H](C)O)C(=O)N1)[C@@H](C)O)C(=O)N1CCC[C@H]1C(=O)N[C@@H](CO)C(=O)N[C@@H](CO)C(=O)N[C@H](C(=O)N[C@@H](CC(N)=O)C(=O)N[C@H](C(=O)NCC(=O)N[C@@H](CO)C(=O)N[C@@H](CC(N)=O)C(=O)N[C@H](C(=O)N1CCC[C@H]1C(N)=O)[C@@H](C)O)C(C)C)[C@@H](C)O
notes: also called compound 20
B2: N^α1-[(4S)-4-carboxy-4-(19-carboxynonadecanoylamino)butanoyl]-[Glu14,Arg17,Pro21,Pro26]-h-amylin (peptide)
peptide: {C20 diacid-γGlu}-KCNTATCATQRLAEFLRHSSPNFGAPLSSTNVGSNTY-NH2
modifications: disulfide 2-7
SMILES: CC(C)C[C@H](NC(=O)[C@H](CCCNC(=N)N)NC(=O)[C@H](CCC(N)=O)NC(=O)[C@@H](NC(=O)[C@H](C)NC(=O)[C@@H]1CSSC[C@H](NC(=O)[C@H](CCCCN)NC(=O)CC[C@H](NC(=O)CCCCCCCCCCCCCCCCCCC(=O)O)C(=O)O)C(=O)N[C@@H](CC(N)=O)C(=O)N[C@@H]([C@@H](C)O)C(=O)N[C@@H](C)C(=O)N[C@@H]([C@@H](C)O)C(=O)N1)[C@@H](C)O)C(=O)N[C@@H](C)C(=O)N[C@@H](CCC(=O)O)C(=O)N[C@@H](Cc1ccccc1)C(=O)N[C@@H](CC(C)C)C(=O)N[C@@H](CCCNC(=N)N)C(=O)N[C@@H](Cc1c[nH]cn1)C(=O)N[C@@H](CO)C(=O)N[C@@H](CO)C(=O)N1CCC[C@H]1C(=O)N[C@@H](CC(N)=O)C(=O)N[C@@H](Cc1ccccc1)C(=O)NCC(=O)N[C@@H](C)C(=O)N1CCC[C@H]1C(=O)N[C@@H](CC(C)C)C(=O)N[C@@H](CO)C(=O)N[C@@H](CO)C(=O)N[C@H](C(=O)N[C@@H](CC(N)=O)C(=O)N[C@H](C(=O)NCC(=O)N[C@@H](CO)C(=O)N[C@@H](CC(N)=O)C(=O)N[C@H](C(=O)N[C@@H](Cc1ccc(O)cc1)C(N)=O)[C@@H](C)O)C(C)C)[C@@H](C)O
notes: also called compound 7
B3: N^α1-[(4S)-4-carboxy-4-(19-carboxynonadecanoylamino)butanoyl]-[Glu14,Arg17,Pro21,Pro25,Pro28,Pro29,Pro37]-h-amylin (peptide)
peptide: {C20 diacid-γGlu}-KCNTATCATQRLAEFLRHSSPNFGPILPPTNVGSNTP-NH2
modifications: disulfide 2-7
SMILES: CC[C@H](C)[C@H](NC(=O)[C@@H]1CCCN1C(=O)CNC(=O)[C@H](Cc1ccccc1)NC(=O)[C@H](CC(N)=O)NC(=O)[C@@H]1CCCN1C(=O)[C@H](CO)NC(=O)[C@H](CO)NC(=O)[C@H](Cc1c[nH]cn1)NC(=O)[C@H](CCCNC(=N)N)NC(=O)[C@H](CC(C)C)NC(=O)[C@H](Cc1ccccc1)NC(=O)[C@H](CCC(=O)O)NC(=O)[C@H](C)NC(=O)[C@H](CC(C)C)NC(=O)[C@H](CCCNC(=N)N)NC(=O)[C@H](CCC(N)=O)NC(=O)[C@@H](NC(=O)[C@H](C)NC(=O)[C@@H]1CSSC[C@H](NC(=O)[C@H](CCCCN)NC(=O)CC[C@H](NC(=O)CCCCCCCCCCCCCCCCCCC(=O)O)C(=O)O)C(=O)N[C@@H](CC(N)=O)C(=O)N[C@@H]([C@@H](C)O)C(=O)N[C@@H](C)C(=O)N[C@@H]([C@@H](C)O)C(=O)N1)[C@@H](C)O)C(=O)N[C@@H](CC(C)C)C(=O)N1CCC[C@H]1C(=O)N1CCC[C@H]1C(=O)N[C@H](C(=O)N[C@@H](CC(N)=O)C(=O)N[C@H](C(=O)NCC(=O)N[C@@H](CO)C(=O)N[C@@H](CC(N)=O)C(=O)N[C@H](C(=O)N1CCC[C@H]1C(N)=O)[C@@H](C)O)C(C)C)[C@@H](C)O
notes: also called compound 4
B4: N^α1-[(4S)-4-carboxy-4-(19-carboxynonadecanoylamino)butanoyl]-[Glu14,Arg17,Pro21,Pro26,Pro37]-h-amylin (peptide)
peptide: {C20 diacid-γGlu}-KCNTATCATQRLAEFLRHSSPNFGAPLSSTNVGSNTP-NH2
modifications: disulfide 2-7
SMILES: CC(C)C[C@H](NC(=O)[C@H](CCCNC(=N)N)NC(=O)[C@H](CCC(N)=O)NC(=O)[C@@H](NC(=O)[C@H](C)NC(=O)[C@@H]1CSSC[C@H](NC(=O)[C@H](CCCCN)NC(=O)CC[C@H](NC(=O)CCCCCCCCCCCCCCCCCCC(=O)O)C(=O)O)C(=O)N[C@@H](CC(N)=O)C(=O)N[C@@H]([C@@H](C)O)C(=O)N[C@@H](C)C(=O)N[C@@H]([C@@H](C)O)C(=O)N1)[C@@H](C)O)C(=O)N[C@@H](C)C(=O)N[C@@H](CCC(=O)O)C(=O)N[C@@H](Cc1ccccc1)C(=O)N[C@@H](CC(C)C)C(=O)N[C@@H](CCCNC(=N)N)C(=O)N[C@@H](Cc1c[nH]cn1)C(=O)N[C@@H](CO)C(=O)N[C@@H](CO)C(=O)N1CCC[C@H]1C(=O)N[C@@H](CC(N)=O)C(=O)N[C@@H](Cc1ccccc1)C(=O)NCC(=O)N[C@@H](C)C(=O)N1CCC[C@H]1C(=O)N[C@@H](CC(C)C)C(=O)N[C@@H](CO)C(=O)N[C@@H](CO)C(=O)N[C@H](C(=O)N[C@@H](CC(N)=O)C(=O)N[C@H](C(=O)NCC(=O)N[C@@H](CO)C(=O)N[C@@H](CC(N)=O)C(=O)N[C@H](C(=O)N1CCC[C@H]1C(N)=O)[C@@H](C)O)C(C)C)[C@@H](C)O
notes: also called compound 5
B5: N^α1-[(4S)-4-carboxy-4-(19-carboxynonadecanoylamino)butanoyl]-[Glu14,Arg17,Pro21,Pro25,Pro28,Pro29]-h-amylin (peptide)
peptide: {C20 diacid-γGlu}-KCNTATCATQRLAEFLRHSSPNFGPILPPTNVGSNTY-NH2
modifications: disulfide 2-7
SMILES: CC[C@H](C)[C@H](NC(=O)[C@@H]1CCCN1C(=O)CNC(=O)[C@H](Cc1ccccc1)NC(=O)[C@H](CC(N)=O)NC(=O)[C@@H]1CCCN1C(=O)[C@H](CO)NC(=O)[C@H](CO)NC(=O)[C@H](Cc1c[nH]cn1)NC(=O)[C@H](CCCNC(=N)N)NC(=O)[C@H](CC(C)C)NC(=O)[C@H](Cc1ccccc1)NC(=O)[C@H](CCC(=O)O)NC(=O)[C@H](C)NC(=O)[C@H](CC(C)C)NC(=O)[C@H](CCCNC(=N)N)NC(=O)[C@H](CCC(N)=O)NC(=O)[C@@H](NC(=O)[C@H](C)NC(=O)[C@@H]1CSSC[C@H](NC(=O)[C@H](CCCCN)NC(=O)CC[C@H](NC(=O)CCCCCCCCCCCCCCCCCCC(=O)O)C(=O)O)C(=O)N[C@@H](CC(N)=O)C(=O)N[C@@H]([C@@H](C)O)C(=O)N[C@@H](C)C(=O)N[C@@H]([C@@H](C)O)C(=O)N1)[C@@H](C)O)C(=O)N[C@@H](CC(C)C)C(=O)N1CCC[C@H]1C(=O)N1CCC[C@H]1C(=O)N[C@H](C(=O)N[C@@H](CC(N)=O)C(=O)N[C@H](C(=O)NCC(=O)N[C@@H](CO)C(=O)N[C@@H](CC(N)=O)C(=O)N[C@H](C(=O)N[C@@H](Cc1ccc(O)cc1)C(N)=O)[C@@H](C)O)C(C)C)[C@@H](C)O
notes: also called compound 6

Numbered stars: 1 amine (or outer) side, 2 acyl side, 3 side chain; on linkers, the order of the positions; unused ones are H or OH. Bridge positions count the residues as written; N and C are the ends. * marks the point of attachment. C20 diacid = O=C(O)CCCCCCCCCCCCCCCCCCC(=O)*; γGlu = O=C(O)[C@H](CCC(=O)[*:2])N[*:1]; AEEA = NCCOCCOCC(=O)O

A word on the IC50: it is the point on the concentration scale where inhibition reaches its midpoint.

One experiment addresses T1, human amylin 3(a) receptor (human …). The experiment is described as follows: cell-based or functional assay.
Take B1: the “Ratio hCT/hAmylin funct.” value is 3.6 and the “hAmylin-R funct. EC50” value came to 0.08 nM.

B2: the “Ratio hCT/hAmylin funct.” value came out at 4.5 and the “hAmylin-R funct. EC50” value turned out to be 0.255 nM.

Take B3: the “Ratio hCT/hAmylin funct.” value was 1.2 and the “hAmylin-R funct. EC50” value was determined as 0.06 nM.

B4: the “Ratio hCT/hAmylin funct.” value was determined as 1 and the “hAmylin-R funct. EC50” value was 0.162 nM.

In the case of B5, the “Ratio hCT/hAmylin funct.” value stood at 5.7 and the “hAmylin-R funct. EC50” value is 0.128 nM.

A further experiment addresses T2, human calcitonin receptor. The experiment can be described thus: cell-based or functional assay.
B1: the “hCTR funct. EC50” value stood at 0.285 nM.

On to B2, for which the “hCTR funct. EC50” value amounted to 1.16 nM.

As for B3, the “hCTR funct. EC50” value was determined as 0.07 nM.

In the case of B4, the “hCTR funct. EC50” value was 0.16 nM.

On to B5, for which the “hCTR funct. EC50” value is 0.729 nM.

The next experiment concerns the target T1, human amylin 3(a) receptor (human …). The experiment is described as follows: SPA competition binding, displacement of 125I-rat amylin from membranes of Amylin 3(a)/CRE-luc BHK cells (Assay V). How it is done: The binding assay was performed using scintillation proximity assay (SPA) beads (RPNQ0001) from PerkinElmer and cell membranes from the Amylin 3(a)/CRE-luc cells (as described in Assay (II)) were used. Membranes were prepared in the following way; the cells were rinsed with PBS and incubated with Versene for approximately 5 min before harvesting. The cells were flushed with PBS and the cell-suspension was centrifuged for 5 min at 1000 rpm. Cells were homogenized (ultrathurrax) in a buffer containing 20 mM Na-HEPES and 10 mM EDTA (pH 7.4) and centrifuged at 20.000 rpm for 15 min. The resulting pellet was resuspended, homogenized and centrifuged (20.000 rpm, 15 min) in a buffer containing 20 mM Na-HEPES and 0.1 mM EDTA (pH 7.4, buffer 2). The resulting pellet was resuspended in buffer 2 and protein concentration was measured (BCA protein Assay, Pierce). The homogenate was kept cold during the whole procedure. The membranes were kept at −80° C. until use. The assay was performed in a 384 well Optiplate (PerkinElmer) in a total volume of 40 ul. Membranes were mixed with SPA beads. Final concentration of membranes 35 ng/μL final and SPA beads was 0.05 mg/well. Test-compounds were dissolved in DMSO and further diluted in assay buffer (50 mM Hepes, pH 7.4, 1 mM CaCl2, 5 mM MgCl₂, 0.1% OA and 0.02% Tween20). […] The final mixture was incubated with shaking at 400 rpm for 120 min at 25° C. prior to centrifugation (1500 rpm, 10 min). Samples were analyzed on TopCounter™ (Packard). The IC₅₀ was calculated using (one site binding competition analysis) GraphPad Prism5 as a measure of receptor affinity.
(Displacement assays read how much labelled ligand stays bound in the presence of the test substance.)
Turning to B1, the 50% inhibitory concentration (IC50) was determined as 0.217 nM.

On to B2, for which the concentration for half-maximal inhibition (IC50) is 0.674 nM.

For the molecule B3, the IC50 came out at 0.321 nM.

With B4, the IC50 was 0.374 nM.

Regarding B5, the concentration for half-maximal inhibition (IC50) turned out to be 0.996 nM.

For the origin of these results see patent US20140087995A1 (published 2014).
